Test results published in PMC2140218.
Like-named read-outs stand apart in the source and are kept apart here. One block for each binder: values may come before it.

Legend:
[1] = target: taxol-stabilized bovine brain microtubules (bovine) (UniProt Q6B856); assay: co-sedimentation
[2] = target: taxol-stabilized bovine brain microtubules (bovine) (UniProt Q6B856); assay: co-sedimentation; remark: listed apart in the source

- fold higher Kd than full length Stu2p [1]: 3.5 fold
B1: Stu2p N612 (domain or fragment)
chain: KVNPIGSVASASKPSMVAANNKSRVLLTSKSLATPKNVVANSTDKNEKLIEEYKYRLQKLQNDEMIWTKERQSLLEKMNNTENYKIEMIKENEMLREQLKEAQSKLNEKNIQLRSKEIDVNKLSDRVLSLENELRNMEIELDRNKKRNDTNLQSMGTISSYSIPSSTVSSNYGVKSLSSALPFKEEEDVRRKEDVNYERRSSESIGDLPHRVNSLNIRPYRKNGTGVSSVSDDLDIDFNDSFASEESYKRAAAVTSTLKARIEKMKAKSRREGTTRT
modifications: [35S]methionine label

- fold higher Kd than full length Stu2p [1]: 30 fold
B3: Stu2p C557 (domain or fragment)
chain: MSGEEEVDYTTLPLEERLTYKLWKARLEAYKELNQLFRNSVGDISRDDNIQIYWRDPTLFAQYITDSNVVAQEQAIVALNSLIDAFASSSLKNAHNITLISTWTPLLVEKGLTSSRATTKTQSMSCILSLCGLDTSITQSVELVIPFFEKKLPKLIAAAANCVYELMAAFGLTNVNVQTFLPELLKHVPQLAGHGDRNVRSQTMNLIVEIYKVTGNNSDLLEEILFKKLKPIQVKDLHKLFAKVGDEPSSSKMLFEWEKRELEKKRSQEEEARKRKSILSNDEGEYQIDKDGDTLMGMETDMPPSKQQSGVQIDTFSMLPEETILDKLPKDFQERITSSKWKDRVEALEEFWDSVLSQTKKLKSTSQNYSNLLGIYGHIIQKDANIQAVALAAQSVELICDKLKTPGFSKDYVSLVFTPLLDRTKEKKPSVIEAIRKALLTICKYYDPLASSGRNEDMLKDILEHMKHKTPQIRMECTQLFNASMKEEKDGYSTLQRYLKDEVVPIVIQIVNDTQPAIRTIGFESFAILIKIFGMNTFVKTLEHLDNLKRKKIEETV
modifications: [35S]methionine label

- fold higher Kd than full length Stu2p [1]: 6 fold
B4: Stu2p C611 (domain or fragment)
chain: MSGEEEVDYTTLPLEERLTYKLWKARLEAYKELNQLFRNSVGDISRDDNIQIYWRDPTLFAQYITDSNVVAQEQAIVALNSLIDAFASSSLKNAHNITLISTWTPLLVEKGLTSSRATTKTQSMSCILSLCGLDTSITQSVELVIPFFEKKLPKLIAAAANCVYELMAAFGLTNVNVQTFLPELLKHVPQLAGHGDRNVRSQTMNLIVEIYKVTGNNSDLLEEILFKKLKPIQVKDLHKLFAKVGDEPSSSKMLFEWEKRELEKKRSQEEEARKRKSILSNDEGEYQIDKDGDTLMGMETDMPPSKQQSGVQIDTFSMLPEETILDKLPKDFQERITSSKWKDRVEALEEFWDSVLSQTKKLKSTSQNYSNLLGIYGHIIQKDANIQAVALAAQSVELICDKLKTPGFSKDYVSLVFTPLLDRTKEKKPSVIEAIRKALLTICKYYDPLASSGRNEDMLKDILEHMKHKTPQIRMECTQLFNASMKEEKDGYSTLQRYLKDEVVPIVIQIVNDTQPAIRTIGFESFAILIKIFGMNTFVKTLEHLDNLKRKKIEETVKTLPNFSIASGSTHSTIETNKQTGPMENKFLLKKSSVLPSKRVASSPLRNDNKS
modifications: [35S]methionine label

Second part, the binder before the results:

B2: Stu2p C657 (domain or fragment)
chain: MSGEEEVDYTTLPLEERLTYKLWKARLEAYKELNQLFRNSVGDISRDDNIQIYWRDPTLFAQYITDSNVVAQEQAIVALNSLIDAFASSSLKNAHNITLISTWTPLLVEKGLTSSRATTKTQSMSCILSLCGLDTSITQSVELVIPFFEKKLPKLIAAAANCVYELMAAFGLTNVNVQTFLPELLKHVPQLAGHGDRNVRSQTMNLIVEIYKVTGNNSDLLEEILFKKLKPIQVKDLHKLFAKVGDEPSSSKMLFEWEKRELEKKRSQEEEARKRKSILSNDEGEYQIDKDGDTLMGMETDMPPSKQQSGVQIDTFSMLPEETILDKLPKDFQERITSSKWKDRVEALEEFWDSVLSQTKKLKSTSQNYSNLLGIYGHIIQKDANIQAVALAAQSVELICDKLKTPGFSKDYVSLVFTPLLDRTKEKKPSVIEAIRKALLTICKYYDPLASSGRNEDMLKDILEHMKHKTPQIRMECTQLFNASMKEEKDGYSTLQRYLKDEVVPIVIQIVNDTQPAIRTIGFESFAILIKIFGMNTFVKTLEHLDNLKRKKIEETVKTLPNFSIASGSTHSTIETNKQTGPMENKFLLKKSSVLPSKRVASSPLRNDNKSKVNPIGSVASASKPSMVAANNKSRVLLTSKSLATPKNVVANSTDKN
modifications: [35S]methionine label
- fold higher Kd than full length Stu2p [1]: 1.6 fold

B5: Stu2p N558 (domain or fragment)
chain: KTLPNFSIASGSTHSTIETNKQTGPMENKFLLKKSSVLPSKRVASSPLRNDNKSKVNPIGSVASASKPSMVAANNKSRVLLTSKSLATPKNVVANSTDKNEKLIEEYKYRLQKLQNDEMIWTKERQSLLEKMNNTENYKIEMIKENEMLREQLKEAQSKLNEKNIQLRSKEIDVNKLSDRVLSLENELRNMEIELDRNKKRNDTNLQSMGTISSYSIPSSTVSSNYGVKSLSSALPFKEEEDVRRKEDVNYERRSSESIGDLPHRVNSLNIRPYRKNGTGVSSVSDDLDIDFNDSFASEESYKRAAAVTSTLKARIEKMKAKSRREGTTRT
modifications: [35S]methionine label
- fold higher Kd than full length Stu2p [1]: 1.4 fold

B6: Stu2p N658 (domain or fragment)
chain: EKLIEEYKYRLQKLQNDEMIWTKERQSLLEKMNNTENYKIEMIKENEMLREQLKEAQSKLNEKNIQLRSKEIDVNKLSDRVLSLENELRNMEIELDRNKKRNDTNLQSMGTISSYSIPSSTVSSNYGVKSLSSALPFKEEEDVRRKEDVNYERRSSESIGDLPHRVNSLNIRPYRKNGTGVSSVSDDLDIDFNDSFASEESYKRAAAVTSTLKARIEKMKAKSRREGTTRT
modifications: [35S]methionine label
- fold higher Kd than full length Stu2p [1]: > 50 fold

B7: Stu2p (natural protein)
chain: MSGEEEVDYTTLPLEERLTYKLWKARLEAYKELNQLFRNSVGDISRDDNIQIYWRDPTLFAQYITDSNVVAQEQAIVALNSLIDAFASSSLKNAHNITLISTWTPLLVEKGLTSSRATTKTQSMSCILSLCGLDTSITQSVELVIPFFEKKLPKLIAAAANCVYELMAAFGLTNVNVQTFLPELLKHVPQLAGHGDRNVRSQTMNLIVEIYKVTGNNSDLLEEILFKKLKPIQVKDLHKLFAKVGDEPSSSKMLFEWEKRELEKKRSQEEEARKRKSILSNDEGEYQIDKDGDTLMGMETDMPPSKQQSGVQIDTFSMLPEETILDKLPKDFQERITSSKWKDRVEALEEFWDSVLSQTKKLKSTSQNYSNLLGIYGHIIQKDANIQAVALAAQSVELICDKLKTPGFSKDYVSLVFTPLLDRTKEKKPSVIEAIRKALLTICKYYDPLASSGRNEDMLKDILEHMKHKTPQIRMECTQLFNASMKEEKDGYSTLQRYLKDEVVPIVIQIVNDTQPAIRTIGFESFAILIKIFGMNTFVKTLEHLDNLKRKKIEETVKTLPNFSIASGSTHSTIETNKQTGPMENKFLLKKSSVLPSKRVASSPLRNDNKSKVNPIGSVASASKPSMVAANNKSRVLLTSKSLATPKNVVANSTDKNEKLIEEYKYRLQKLQNDEMIWTKERQSLLEKMNNTENYKIEMIKENEMLREQLKEAQSKLNEKNIQLRSKEIDVNKLSDRVLSLENELRNMEIELDRNKKRNDTNLQSMGTISSYSIPSSTVSSNYGVKSLSSALPFKEEEDVRRKEDVNYERRSSESIGDLPHRVNSLNIRPYRKNGTGVSSVSDDLDIDFNDSFASEESYKRAAAVTSTLKARIEKMKAKSRREGTTRT
modifications: [35S]methionine label
- Kd [1]: 540 nM
- Kd [2]: 560 nM
